Assay results: patent US20170183403A1

Target: T1, Reference peptide no. 48
T1 sequence (peptide): PKLTRMLTFKFAMPK
Assay: peptide microarray (RepliTope), Ala mutagenesis set

NARA1 (antibody)
signal intensity after subtraction of control signal: 6200 AU
